Results taken from US20170145113A1 (Genentech, published 2017).

B1: APEG.LC3.HC1 (Fab, V domains shown)
VH: EVQLVQSGAEVKKPGASVKVSCKASGYTFKDSEMHWVRQAPGQGLEWIGGVDPETEGAAYNQKFKGRATITRDTSTSTAYLELSSLRSEDTAVYYCTRGYDYDYALDYWGQGTLVTVSS
VL: DIQMTQSPSSLSASVGDRVTITCRASSSVEFIHWYQQKPGKAPKPLISATSNLASGVPSRFSGSGSGTDFTLTISSLQPEDFATYYCQQWSSAPWTFGQGTKVEIK
notes: single member of the group m82
B2: h15H6.v2 variant LC7 (LC-S92Y) Fab (Fab, V domains shown)
VH: EVQLVQSGAEVKKPGASVKVSCKASGYTFTDSEMHWVRQAPGQGLEWIGGVDPETDGAAYNQKFKGRATITRDTSTSTAYLELSSLRSEDTAVYYCTRGYDYDYALDYWGQGTLVTVSS
VL: DIQMTQSPSSLSASVGDRVTITCRASSSVNFIHWYQQKPGKAPKPLISATSNLASGVPSRFSGSGSGTDFTLTISSLQPEDFATYYCQQWYSNPWTFGQGTKVEIK
notes: Fab-Flag tag fusion from 293T cells
B3: combination mutant LC7.HC5 Fab (Fab, V domains shown)
VH: EVQLVQSGAEVKKPGASVKVSCKASGYTFTDSELHWVRQAPGQGLEWIGGVDPETDGAAYNQKFKGRATITRDTSTSTAYLELSSLRSEDTAVYYCTRGYDYDYALDYWGQGTLVTVSS
VL: DIQMTQSPSSLSASVGDRVTITCRASSSVNFIHWYQQKPGKAPKPLISATSNLASGVPSRFSGSGSGTDFTLTISSLQPEDFATYYCQQWYSNPWTFGQGTKVEIK
notes: Fab
B4: combination mutant LC3.HC5 Fab (Fab, V domains shown)
VH: EVQLVQSGAEVKKPGASVKVSCKASGYTFTDSELHWVRQAPGQGLEWIGGVDPETDGAAYNQKFKGRATITRDTSTSTAYLELSSLRSEDTAVYYCTRGYDYDYALDYWGQGTLVTVSS
VL: DIQMTQSPSSLSASVGDRVTITCRASSSVEFIHWYQQKPGKAPKPLISATSNLASGVPSRFSGSGSGTDFTLTISSLQPEDFATYYCQQWSSNPWTFGQGTKVEIK
notes: Fab
B5: combination mutant LC4.HC3 Fab (Fab, V domains shown)
VH: EVQLVQSGAEVKKPGASVKVSCKASGYKFTDSEMHWVRQAPGQGLEWIGGVDPETDGAAYNQKFKGRATITRDTSTSTAYLELSSLRSEDTAVYYCTRGYDYDYALDYWGQGTLVTVSS
VL: DIQMTQSPSSLSASVGDRVTITCRASSSVNFIHWYQQKPGKAPKPLISATSHLASGVPSRFSGSGSGTDFTLTISSLQPEDFATYYCQQWSSNPWTFGQGTKVEIK
notes: Fab
B6: combination mutant LC4.HC5 Fab (Fab, V domains shown)
VH: EVQLVQSGAEVKKPGASVKVSCKASGYTFTDSELHWVRQAPGQGLEWIGGVDPETDGAAYNQKFKGRATITRDTSTSTAYLELSSLRSEDTAVYYCTRGYDYDYALDYWGQGTLVTVSS
VL: DIQMTQSPSSLSASVGDRVTITCRASSSVNFIHWYQQKPGKAPKPLISATSHLASGVPSRFSGSGSGTDFTLTISSLQPEDFATYYCQQWSSNPWTFGQGTKVEIK
notes: Fab
B7: combination mutant LC4.HC2 Fab (Fab, V domains shown)
VH: EVQLVQSGAEVKKPGASVKVSCKASGYTFRDSEMHWVRQAPGQGLEWIGGVDPETDGAAYNQKFKGRATITRDTSTSTAYLELSSLRSEDTAVYYCTRGYDYDYALDYWGQGTLVTVSS
VL: DIQMTQSPSSLSASVGDRVTITCRASSSVNFIHWYQQKPGKAPKPLISATSHLASGVPSRFSGSGSGTDFTLTISSLQPEDFATYYCQQWSSNPWTFGQGTKVEIK
notes: Fab
B8: combination mutant LC5.HC5 Fab (Fab, V domains shown)
VH: EVQLVQSGAEVKKPGASVKVSCKASGYTFTDSELHWVRQAPGQGLEWIGGVDPETDGAAYNQKFKGRATITRDTSTSTAYLELSSLRSEDTAVYYCTRGYDYDYALDYWGQGTLVTVSS
VL: DIQMTQSPSSLSASVGDRVTITCRASSSVNFIHWYQQKPGKAPKPLISATSELASGVPSRFSGSGSGTDFTLTISSLQPEDFATYYCQQWSSNPWTFGQGTKVEIK
notes: Fab
B9: combination mutant LC5.HC2 Fab (Fab, V domains shown)
VH: EVQLVQSGAEVKKPGASVKVSCKASGYTFRDSEMHWVRQAPGQGLEWIGGVDPETDGAAYNQKFKGRATITRDTSTSTAYLELSSLRSEDTAVYYCTRGYDYDYALDYWGQGTLVTVSS
VL: DIQMTQSPSSLSASVGDRVTITCRASSSVNFIHWYQQKPGKAPKPLISATSELASGVPSRFSGSGSGTDFTLTISSLQPEDFATYYCQQWSSNPWTFGQGTKVEIK
notes: Fab
B10: combination mutant LC7.HC2 Fab (Fab, V domains shown)
VH: EVQLVQSGAEVKKPGASVKVSCKASGYTFRDSEMHWVRQAPGQGLEWIGGVDPETDGAAYNQKFKGRATITRDTSTSTAYLELSSLRSEDTAVYYCTRGYDYDYALDYWGQGTLVTVSS
VL: DIQMTQSPSSLSASVGDRVTITCRASSSVNFIHWYQQKPGKAPKPLISATSNLASGVPSRFSGSGSGTDFTLTISSLQPEDFATYYCQQWYSNPWTFGQGTKVEIK
notes: Fab
B11: combination mutant LC7.HC3 Fab (Fab, V domains shown)
VH: EVQLVQSGAEVKKPGASVKVSCKASGYKFTDSEMHWVRQAPGQGLEWIGGVDPETDGAAYNQKFKGRATITRDTSTSTAYLELSSLRSEDTAVYYCTRGYDYDYALDYWGQGTLVTVSS
VL: DIQMTQSPSSLSASVGDRVTITCRASSSVNFIHWYQQKPGKAPKPLISATSNLASGVPSRFSGSGSGTDFTLTISSLQPEDFATYYCQQWYSNPWTFGQGTKVEIK
notes: Fab
B12: combination mutant LC7.HC1 Fab (Fab, V domains shown)
VH: EVQLVQSGAEVKKPGASVKVSCKASGYTFKDSEMHWVRQAPGQGLEWIGGVDPETDGAAYNQKFKGRATITRDTSTSTAYLELSSLRSEDTAVYYCTRGYDYDYALDYWGQGTLVTVSS
VL: DIQMTQSPSSLSASVGDRVTITCRASSSVNFIHWYQQKPGKAPKPLISATSNLASGVPSRFSGSGSGTDFTLTISSLQPEDFATYYCQQWYSNPWTFGQGTKVEIK
notes: Fab
B13: combination mutant LC5.HC3 Fab (Fab, V domains shown)
VH: EVQLVQSGAEVKKPGASVKVSCKASGYKFTDSEMHWVRQAPGQGLEWIGGVDPETDGAAYNQKFKGRATITRDTSTSTAYLELSSLRSEDTAVYYCTRGYDYDYALDYWGQGTLVTVSS
VL: DIQMTQSPSSLSASVGDRVTITCRASSSVNFIHWYQQKPGKAPKPLISATSELASGVPSRFSGSGSGTDFTLTISSLQPEDFATYYCQQWSSNPWTFGQGTKVEIK
notes: Fab
B14: combination mutant LC5.HC1 Fab (Fab, V domains shown)
VH: EVQLVQSGAEVKKPGASVKVSCKASGYTFKDSEMHWVRQAPGQGLEWIGGVDPETDGAAYNQKFKGRATITRDTSTSTAYLELSSLRSEDTAVYYCTRGYDYDYALDYWGQGTLVTVSS
VL: DIQMTQSPSSLSASVGDRVTITCRASSSVNFIHWYQQKPGKAPKPLISATSELASGVPSRFSGSGSGTDFTLTISSLQPEDFATYYCQQWSSNPWTFGQGTKVEIK
notes: Fab
B15: combination mutant LC3.HC3 Fab (Fab, V domains shown)
VH: EVQLVQSGAEVKKPGASVKVSCKASGYKFTDSEMHWVRQAPGQGLEWIGGVDPETDGAAYNQKFKGRATITRDTSTSTAYLELSSLRSEDTAVYYCTRGYDYDYALDYWGQGTLVTVSS
VL: DIQMTQSPSSLSASVGDRVTITCRASSSVEFIHWYQQKPGKAPKPLISATSNLASGVPSRFSGSGSGTDFTLTISSLQPEDFATYYCQQWSSNPWTFGQGTKVEIK
notes: Fab
B16: h15H6.v2 variant LC3 (LC-N31E) Fab (Fab, V domains shown)
VH: EVQLVQSGAEVKKPGASVKVSCKASGYTFTDSEMHWVRQAPGQGLEWIGGVDPETDGAAYNQKFKGRATITRDTSTSTAYLELSSLRSEDTAVYYCTRGYDYDYALDYWGQGTLVTVSS
VL: DIQMTQSPSSLSASVGDRVTITCRASSSVEFIHWYQQKPGKAPKPLISATSNLASGVPSRFSGSGSGTDFTLTISSLQPEDFATYYCQQWSSNPWTFGQGTKVEIK
notes: as for B2
B17: combination mutant LC4.HC1 Fab (Fab, V domains shown)
VH: EVQLVQSGAEVKKPGASVKVSCKASGYTFKDSEMHWVRQAPGQGLEWIGGVDPETDGAAYNQKFKGRATITRDTSTSTAYLELSSLRSEDTAVYYCTRGYDYDYALDYWGQGTLVTVSS
VL: DIQMTQSPSSLSASVGDRVTITCRASSSVNFIHWYQQKPGKAPKPLISATSHLASGVPSRFSGSGSGTDFTLTISSLQPEDFATYYCQQWSSNPWTFGQGTKVEIK
notes: Fab

Tests used:
[1] = molecular target: T1, His-tagged human HtrA1 protease domain (human, UniProt Q92743 161-367); test: BIACORE T200 SPR; Fab analyte over huHtrA1-PD-His captured by anti-His antibody
T1 construct: His-tagged protease domain; also called huHtrA1-PD-His; huHtrA1-PD
Method: (§1) To determine the binding affinity of selected Fab variants for HtrA1, SPR measurement with a BIACORE™ T200 instrument was performed. Briefly, a series S sensor chip CM5 was activated with 1-EDC and NHS reagents according to the supplier's instructions, and anti-His antibody was coupled to achieve 200-300 response units (RU), then following by blocking un-reacted groups with 1 M ethanolamine. For kinetics measurements, approximately 5 nM of huHtrA1-PD-His was first injected at 10 μl/min flow rate to capture approximately 100 RU at 2 different flow cells (FC), except for FC1 (which served as a reference). Next, 5-fold serial dilutions of Fab in HBS-P buffer (0.01M HEPES pH 7.4, 0.15M NaCl, 0.005% surfactant P20) from low (0.8 nM) to high (50 nM) were injected (flow rate: 30 μl/min). The binding responses on HtrA1 were corrected by subtracting of RU from a blank flow cell. The sensorgram was recorded and subject to reference and buffer subtraction before evaluating by BIACORE® T200 Evaluation Software (version 2.0). Association rates (kₒₙ) and dissociation rates (koff) were calculated using a simple one-to-one Langmuir binding model. The equilibrium dissociation constant (KD) was calculated as the ratio of koff/kₒₙ.

[2] = molecular target: T1, His-tagged human HtrA1 protease domain; test: SPR (BIACORE T200), huHtrA1-PD-His captured by anti-His, Fab injected
Method: These combination mutants included both a variant light chain and a variant heavy chain. BIACORE™ kinetic analysis was performed (as described below in Section C) using the combination mutants.
as §1

[3] = molecular target: T1, His-tagged human HtrA1 protease domain; test: as above; remark: listed apart in the source
Method: as §1

T1 sequence (Q92743 other isoform, or with tags, fused parts or gaps limits assumed): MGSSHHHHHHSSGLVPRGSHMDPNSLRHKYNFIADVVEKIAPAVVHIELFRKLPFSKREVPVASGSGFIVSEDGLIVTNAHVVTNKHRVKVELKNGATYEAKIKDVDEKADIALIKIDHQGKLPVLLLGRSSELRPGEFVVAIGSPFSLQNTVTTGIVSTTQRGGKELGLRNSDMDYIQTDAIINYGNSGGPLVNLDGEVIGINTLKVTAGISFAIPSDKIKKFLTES

| Binder | Kd [1] [nM] | koff [1] [s⁻¹] | kon [1] [M⁻¹ s⁻¹] | Kd [2] [nM] | koff [2] [s⁻¹] | kon [2] [M⁻¹ s⁻¹] | Kd [3] [nM] | koff [3] [s⁻¹] | kon [3] [M⁻¹ s⁻¹] |
| --- | --- | --- | --- | --- | --- | --- | --- | --- | --- |
| B1 | 0.106 | 4.55e-05 | 428000 |  |  |  |  |  |  |
| B2 |  |  |  | 1.37 | 0.000188 | 137000 | 0.335 | 0.000193 | 578000 |
| B3 |  |  |  | 0.745 | 0.000303 | 406000 |  |  |  |
| B4 |  |  |  | 0.176 | 0.000102 | 577000 |  |  |  |
| B5 |  |  |  | 2.18 | 0.00024 | 110000 |  |  |  |
| B6 |  |  |  | 1.4 | 0.000297 | 212000 |  |  |  |
| B7 |  |  |  | 7.98 | 0.000222 | 27800 |  |  |  |
| B8 |  |  |  | 0.877 | 0.000296 | 337000 |  |  |  |
| B9 |  |  |  | 0.719 | 0.000211 | 294000 |  |  |  |
| B10 |  |  |  | 0.0955 | 0.000189 | 1.97e+06 |  |  |  |
| B11 |  |  |  | 0.335 | 0.000237 | 709000 |  |  |  |
| B12 |  |  |  | 0.772 | 0.000267 | 347000 |  |  |  |
| B13 |  |  |  | 1.08 | 0.000251 | 233000 |  |  |  |
| B14 |  |  |  | 1.1 | 0.00023 | 208000 |  |  |  |
| B15 |  |  |  | 0.0616 | 4.93e-05 | 801000 |  |  |  |
| B16 |  |  |  | 0.905 | 0.000115 | 127000 | 0.48 | 0.00013 | 270000 |
| B17 |  |  |  | 0.852 | 0.000228 | 268000 |  |  |  |
